According to article PMC10889005:

Target: KPNA4 (UniProt O00629)
Test: pull-down/IP from co-transfected cells
Settings: reference: IRF3 wild type; sites S97

IRF3 (from UniProt Q14653) IRF3 S97A
binding against the reference: stronger
